Here are results for one substance from patent publication US20170137511A1.

In the test the target is biotinylated human IL-15 (R&D Systems cat. no. NF150) (human) (UniProt P40933). Kind of test: blocking ELISA: biotinylated human IL-15 (100 pM) binding to plate-bound IL-15Rα-Fc, antibody titrated, streptavidin-peroxidase, absorbance at 450 nm; the filing does not say in words which of the two partners the control antibody binds. (In an ELISA, binding on a coated surface is turned into a signal by an enzyme label.)
Chain of biotinylated human IL-15 (R&D Systems cat. no. NF150) (human) (P40933 49-162 limits assumed): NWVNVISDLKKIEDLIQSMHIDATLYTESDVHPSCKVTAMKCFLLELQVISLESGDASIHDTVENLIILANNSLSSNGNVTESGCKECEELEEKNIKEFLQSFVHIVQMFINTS

As to “antibody known to block IL-15 binding to IL-15Rα (R&D Systems cat. no. NF150)”, the IC50 (read off the curve) is 10 µg/mL.
